From patent publication US20120134979A1, “METHODS AND COMPOSITIONS FOR THE TREATMENT OF SICKLE CELL DISEASE” (priority 2010, published 2012)

Legend:
Format in all cases: in vivo, mouse
SCD Tg mice [1] = assay: 2,3-DPG in RBCs and saturated Hb in SCD Tg mice after chronic treatment
Protocol: (§1) Chronic PEG-ADA therapy. SCD transgenic mice, at eight weeks of age, were divided to two groups. One group was injected with 2.5 U PEG-ADA weekly for 8 weeks. This dosing protocol was designated SCD with PEG-ADA treatment regimen (SCD+PEG-ADA). Another group was injected with normal saline for 8 weeks; it was designated as SCD without PEG-ADA treatment regimen (SCD). Wild-type mice (C57Bl/6) used as control were injected with saline or PEG-ADA as with the SCD groups.
(§2) Chronic treatment with A2BR antagonist, PSB1115. SCD transgenic mice or wild type mice (eight weeks of age) were divided to two groups, one groups was injected with 200 μg of PSB1115 (an A2B receptor antagonist: obtained from Tocris Bioscience, St. Louis, Mo.) in PBS, daily for 8 weeks. One of groups was injected with saline.
2,3-DPG analysis. 2,3-DPG concentration in RBCs was detected by a commercially available kit (Roche, Nutley, N.J., and as described in Ericson A, de Verdier C H. A modified method for the determination of 2,3-diphosphoglycerate in erythrocytes. Scandinavian journal of clinical and laboratory investigation. 1972; 29(1):84-90).
Measurement of percentage of saturated Hb in mice. Percentage of saturated Hb (SpO2) in mice was measured by Oxysat (Kent Scientific Corp, CT). Mice were held in mouse holders (Kent Scientific Corp, CT) and Oxysat sensor was placed on a site approximately 1 cm from the base of the tail. When mouse was calm, the SpO2 was continuously recorded for about 2 minutes. The data were collected and SpO2 was calculated by average of SpO2 in two-minute measurement.

SCD Tg mice [2] = assay: Organ weight, histology and heme content in SCD Tg mice after chronic treatment
Protocol: as §1, §2
Mouse organ isolation and histological analysis. Mice were anesthetized and body weight was determined. Organs were isolated and weighed. Half of each organ was quickly frozen in liquid nitrogen and then stored at −80° C. for heme content measurements as described below. The remaining half of each organ was fixed with 4% paraformaldehyde in PBS overnight at 4° C. Fixed tissues were rinsed in PBS, dehydrated through graded ethanol washes, and embedded in paraffin. 5 μm sections were collected on slides and stained with haematoxylin and eosin (H&E). Semiquantification of histological changes was analyzed by Image-Plus, Pro software.
Heme content measurement in multiple mouse tissues. Different organs were quickly removed and frozen in liquid nitrogen as described above. Heme was extracted from organs by homogenization with 1% Triton x-100 in PBS with 1× proteinase inhibitors (Roche) and the supernatant was collected following centrifugation at 20,000 g for 10 minutes at 4° C. Heme content was quantified following the instructions of QuantiChrom Heme Assay Kit (BioAssay Systems, Hayword, Calif.).

SCD Tg mice [3] = assay: Hematological parameters of SCD Tg mice treated with PEG-ADA or PSB1115 for 8 weeks; details: 8 weeks treatment
Excerpt: Mice. Berkley sickle cell disease transgenic mice (SCD Tg mice), expressing exclusively human sickle hemoglobin (HbS) were purchased from The Jackson Laboratory Inc (Paszty, C. Transgenic and gene knock-out mouse models of sickle cell anemia and the thalassemias. Curr Opin Hematol 4, 88-93, 1997). C57BL/6 mice used as controls were purchased from Harlan Laboratories. Adenosine receptor deficient mice were obtained from the following sources: A1R-deficient mice (Jurgen Schnermann, NIDDK, NIH); A2AR-deficient mice (Jiang-Fan Chen, Boston University School of Medicine); A2BR-deficient mice (Michael R. Blackburn, University of Texas-Houston Medical School); and A3R-deficient mice (Marlene Jacobson, Merck Research Laboratories). All receptor deficient mice were backcrossed at least 10 generations onto the C57Blk/6J background and were genotyped according to established protocols (Sun, D., et al. Mediation of tubuloglomerular feedback by adenosine: evidence from mice lacking adenosine receptors. Proc Natl Acad Sci USA 98, 9983-9988, 2001; Nemeth, Z. H., et al. Adenosine receptor activation ameliorates type 1 diabetes. FASEB J, 2007; Chen, J. F., et al. A2A adenosine receptor deficiency attenuates brain injury induced by transient focal ischemia in mice. J Neurosci 19, 9192-9200, 1999; Salvatore, C. A., et al. Disruption of the A3 adenosine receptor gene in mice and its effect on stimulated inflammatory cells. The Journal of Biological Chemistry 275, 4429-4434, 2000). Animals were maintained in accordance with institutional and NIH guidelines under research protocols that were reviewed and approved by the University of Texas Health Science Center at Houston Animal Welfare Committee.
as §1, §2
Morphological study of erythrocytes and quantification of reticulocytes by flow cytometry. Blood smears were stained using the WG16-500 ml kit (Sigma-Aldrich) for sickled cells and observed using 100× oil immersion objective of Olympus BX60 microscope. […] The percentages of sickled cells among the counted cells were calculated. Reticulocyte was labeled by Retic-COUNT Reagent (Becton Dickinson) and quantified by flow cytometry (Perumbeti, et al., A novel human gamma-globin gene vector for genetic correction of sickle cell anemia in a humanized sickle mouse model: critical determinants for successful correction. Blood. 2009; 114(6):1174-1185).

B1: PEG-ADA: polyethylene glycol-modified adenosine deaminase, a drug used to lower adenosine concentrations in ADA-deficient humans (protein, UniProt P56658 2-363, looked up)
Adenosine deaminase: AQTPAFNKPKVELHVHLDGAIKPETILYYGRKRGIALPADTPEELQNIIGMDKPLSLPEFLAKFDYYMPAIAGCREAVKRIAYEFVEMKAKDGVVYVEVRYSPHLLANSKVEPIPWNQAEGDLTPDEVVSLVNQGLQEGERDFGVKVRSILCCMRHQPSWSSEVVELCKKYREQTVVAIDLAGDETIEGSSLFPGHVKAYAEAVKSGVHRTVHAGEVGSANVVKEAVDTLKTERLGHGYHTLEDATLYNRLRQENMHFEVCPWSSYLTGAWKPDTEHPVVRFKNDQVNYSLNTDDPLIFKSTLDTDYQMTKNEMGFTEEEFKRLNINAAKSSFLPEDEKKELLDLLYKAYGMPSPASAEQCL
modifications: PEGylated
percentage of saturated Hb (SCD Tg mice [1]; chronic PEG-ADA treatment): increased | 2,3-DPG levels in the RBCs (SCD Tg mice [1]; steady state, 8 weeks treatment): reduction | congestion, vascular damage and necrosis in multiple tissues (histology) (SCD Tg mice [2]; 8 weeks treatment, lung, liver, spleen (PSB1115 also kidney)): improved | heme content in lung, liver and spleen (SCD Tg mice [2]; PEG-ADA enzyme therapy): significantly decreases | microinfarction and cysts in renal cortex and congestion in renal medulla (SCD Tg mice [2]; PEG-ADA enzyme therapy): significantly improved | ratio of spleen weight to body weight (SCD Tg mice [2]; chronic treatment, untreated 4.52±0.24, p<0.05, n=8): 2.48±0.36 | HCT (SCD Tg mice [3]): 30.15 ± 8.90 % | Hb (SCD Tg mice [3]): 7.71 ± 2.64 g/dL | MCH (SCD Tg mice [3]): 12.38 ± 2.85 pg | MCHC (SCD Tg mice [3]): 25.33 ± 1.21 g/dL | MCV (SCD Tg mice [3]): 48.58 ± 8.79 fL | RDW (SCD Tg mice [3]): 28.03 ± 1.14 % | Reticulocyte (SCD Tg mice [3]): 43 ± 4.52 % | Sickle cell (SCD Tg mice [3]): 10.35 ± 0.39 % | WBC (SCD Tg mice [3]): 15.00 ± 2.79 k/μl | RBC (SCD Tg mice [3]; mean ± SEM): 6.15 ± 1.01 M/μl
